Values of other authors, collected in publication PMC10935721.

Tested on: Tyr32
Details: reduced (non-radical) X32

Substance: α3Y (de novo three-helix bundle with Tyr32) (synthetic construct (de novo designed))
- pKa: 11.3 (±0.1)
